This note sets out measurements from the RNAGym collection of RNA variant scans (doi:10.7554/elife.80360).

B1: HDV Ribozyme (parent)
chain: GGCCGGCAUGGUCCCAGCCUCCUCGCUGGCGCCGGCUGGGCAACAUUCCGAGGGGACCGUCCCCUCGGUAAUGGCGAAUGGGACCCA

This data set covers variants of B1. Put plainly: self-cleavage, relative activity (ratio to wild type); higher = more cleavage; co-transcriptional.
For G54A A71C, the self-cleavage was 0.753. As to U27C C62A, the self-cleavage came to 0.54.

As to G39U C84A, the self-cleavage was 0.495. Then G39U C84G, with 0.348. The same measure for C21G G52A: 0.0287; for G6C G11A: 0.

Turning to C14A G74U, the self-cleavage came to 0.281.

Turning to C14A G74A, the self-cleavage is 0.182.

As to A77C A78C, the self-cleavage was 0.208. U12A G59A: the self-cleavage is 0.172. The same measure for G11U G40U: 0.18; for G1U C85G: 0.383; for C15G G28U: 0.0437. Take G40U A78G: the self-cleavage is 0.199. Consider C75A A77G, for which the self-cleavage came to 0.0875. The same measure for G80A A83C: 0.135; for C4U C75A: 0.128.

With G6U A42G, the self-cleavage was 0.214. The same measure for G6U A42C: 0; for G6C G68U: 0.277; for A45G U46C: 0.511.

For C75U G80C, the self-cleavage was determined as 0.142.

G25A A43U: the self-cleavage came out at 0.0437.

Turning to G10A C84A, the self-cleavage was determined as 0.562. G5A: the self-cleavage was 0.199. As for A56C U72G, the self-cleavage was 0.383. The same measure for G5C G31U: 0.0405; for G5A G25C: 0.0923; for C19A C24A: 0.0831. As to G34U C58U, the self-cleavage was found to be 0.153. G11U A56C: the self-cleavage is 0.332. Turning to G28C U60G, the self-cleavage is 0.

Consider U9C U20G, for which the self-cleavage came out at 0.443. The same measure for G25C C26A: 0.196; for C66G G81A: 0.408; for C41A C66G: 0.91.

With G34C G80C, the self-cleavage was 0.23.

Take G5C G76A: the self-cleavage turned out to be 0.415. Regarding U12C G25U, the self-cleavage turned out to be 0.0369. For A16C U79A, the self-cleavage stood at 1.06.

Consider G6A G35A, for which the self-cleavage was determined as 0.302. Then C44U U72A, with 0.678; and G11U C86A, with 0.489; and G5A G52A, with 0.227. Then C33A A87C, with 0.248; and G5U A16C, with 0.383. Then C24G C63U, with 0.0875; and U60G G76C, with 1.09; and C18U A43G, with 0.17.

G35C C64G: the self-cleavage amounted to 0.426. As for A16G C84A, the self-cleavage stood at 0.7. On to C26U C61A, for which the self-cleavage amounted to 1.06.

For C19G C44U, the self-cleavage was determined as 0.0563. With U27G C86G, the self-cleavage turned out to be 0.745. Turning to G10C G40A, the self-cleavage came to 0.95. The same measure for G10C U27C: 0.942; for C41A C62G: 0.324.

Consider A8G G67U, for which the self-cleavage was determined as 0.978. As to C85U C86A, the self-cleavage is 0.923.

G59C G68U: the self-cleavage is 1.07. The same measure for C4A U79C: 0. With A70U G76A, the self-cleavage worked out at 1.02. Turning to G52C C66A, the self-cleavage worked out at 1.03.

Take C4A G10A: the self-cleavage is 0.0554. Consider A45C A83G, for which the self-cleavage stood at 0.23.

Turning to G2A C48A, the self-cleavage worked out at 0.17.

Consider C19A C63A, for which the self-cleavage is 0.153. Regarding A45G U72A, the self-cleavage was determined as 0.604. The same measure for G10U C19A: 0.0946. For the variant C7A C62U, the self-cleavage came to 0.721.

With U27C G74C, the self-cleavage is 0.383.

As for G1C C32U, the self-cleavage was 0.192. As for C14G C30U, the self-cleavage amounted to 0.0396. Then G38A C48G, with 0.148. The same measure for C24A U47C: 0.508. The same measure for U20A G31C: 0.0475. Take C15A U60G: the self-cleavage amounted to 0.731. With G6A G73U, the self-cleavage came to 0.111.

Take U20G U72A: the self-cleavage was 0.0875. Then G1C C18A, with 0.123. Then C4A U20G, with 0; and C26G G80C, with 0.212; and C7U C61U, with 0.831. The same measure for G6C C19A: 0. Turning to G55A G74A, the self-cleavage worked out at 0.457. As for C14G C36G, the self-cleavage was 0.237. Consider A43C A71U, for which the self-cleavage came out at 0.322. Take C4A G6A: the self-cleavage is 0.0573.

As for G6A A8G, the self-cleavage came to 0.554. As for C13A U37C, the self-cleavage is 0.131. The same measure for G28U A71C: 0; for C33U C57U: 0.719. Then G25U G76U, with 0.389. In the case of U72C A78G, the self-cleavage came out at 0.237. As to G55A G80U, the self-cleavage is 0.13. Take C7A U46A: the self-cleavage amounted to 0.287. The same measure for G6A C41A: 0.326. Take G50C C84G: the self-cleavage was 0.542.

As for C48G G80U, the self-cleavage was determined as 0.244. The same measure for G28A G53A: 0.02. For C36G A71G, the self-cleavage was 0.138.

A70U G80U: the self-cleavage was 0.222. The same measure for A45G U65A: 0.767. On to C24G G39C, for which the self-cleavage turned out to be 0.18. Then U12C C61U, with 0.404; and G6U C62A, with 0.54; and A16G G54C, with 1.08.

Regarding C3G A56G, the self-cleavage was determined as 0.692. The same measure for C26G A51C: 1.13.

For the variant G52C G73A, the self-cleavage amounted to 0.627. Then G67C U72G, with 0.231; and C7A G74A, with 0.026; and G59C C66A, with 0.914. Then G39A A77G, with 0.141; and C48U A87G, with 1.07. The same measure for C33A C41A: 0.0845; for G5A A51U: 0.104. For the variant U20A U46G, the self-cleavage was 0.166. Take G5A G53U: the self-cleavage was 0.309.

Turning to U20G G31A, the self-cleavage came to 0. The same measure for G29A A87C: 0.0602; for C24A G25C: 0.208; for C3U U79A: 0.591.

Consider A16C U60A, for which the self-cleavage is 1.11. The same measure for G28A G68C: 0.0692; for G2U G28A: 0.0164; for U60C C66G: 1.02. Then C15G C63U, with 0.394; and G40C A42G, with 0.196. As to U20C C48A, the self-cleavage was 0.341. Take G40C A77G: the self-cleavage was found to be 0.271. The same measure for A70G G76A: 0.92; for C32U A78G: 0.525. The same measure for U12G C15G: 0; for C7G C86U: 0.383. As for G50C C57G, the self-cleavage was determined as 1.12. Then G1U U46A, with 0.443; and A16G C64U, with 0.942; and U47G C75U, with 0.305. In the case of C14G G53C, the self-cleavage is 0.727. Then C13U C61A, with 0.47; and C13U C61U, with 0.77; and U9C C26G, with 0.886. Then C32G C75U, with 0.0468; and C18U C58A, with 0.612. The same measure for G54C U60A: 1.08; for G5A A71U: 0.231; for C32A G35U: 0.157. Regarding G29C G74U, the self-cleavage is 0. Then G38A U65C, with 0.117.

For the variant G38A U65G, the self-cleavage was 0.181.

Take C24U G39C: the self-cleavage is 0.0302. The same measure for A16C G52A: 0.751; for C15G G81U: 0.297.

C30U G40C: the self-cleavage was found to be 0.0256. The same measure for U20G G53U: 0.208; for U69A A70G: 0.98; for U60C A87U: 0.921. For the variant C21U G81A, the self-cleavage is 0.0978. The same measure for G2U A71C: 0.0161.

On to G2U C48A, for which the self-cleavage was 0.0378. Then U37C G74A, with 0.196. Then G74U C86U, with 0.648. Consider A8C U69C, for which the self-cleavage was 0.831.

Regarding G28U C84G, the self-cleavage came to 0.13. As to G29U G59A, the self-cleavage came to 0.102. Then G6C C14A, with 0.
